Reference: patent publication US11608374 (dated 2023)
Substitutions are numbered along the chain they refer to. Blank lines part the entries; values can stand above or below the binder they belong to.

Legend:
cynomolgus sclerostin [1] = molecular target: T1, cynomolgus sclerostin (cynomolgus monkey); test: SPR, pH 7.4, 37C
T1 chain: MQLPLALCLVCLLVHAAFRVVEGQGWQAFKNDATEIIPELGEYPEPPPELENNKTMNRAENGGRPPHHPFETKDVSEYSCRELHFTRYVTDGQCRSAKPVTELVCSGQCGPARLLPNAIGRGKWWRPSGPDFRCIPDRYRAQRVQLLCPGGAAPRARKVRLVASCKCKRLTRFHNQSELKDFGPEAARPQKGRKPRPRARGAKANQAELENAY

rat sclerostin [2] = molecular target: T2, rat sclerostin (rat); test: SPR, pH 7.4, 37C
T2 chain: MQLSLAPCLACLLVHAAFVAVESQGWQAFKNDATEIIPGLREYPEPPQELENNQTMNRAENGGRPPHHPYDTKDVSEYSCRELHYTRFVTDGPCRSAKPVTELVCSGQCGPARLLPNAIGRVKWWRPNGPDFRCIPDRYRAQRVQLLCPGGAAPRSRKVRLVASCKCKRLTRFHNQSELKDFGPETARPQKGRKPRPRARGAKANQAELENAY

mouse sclerostin [3] = molecular target: T3, mouse sclerostin (mouse); test: SPR, pH 5.8, 37C
T3 chain: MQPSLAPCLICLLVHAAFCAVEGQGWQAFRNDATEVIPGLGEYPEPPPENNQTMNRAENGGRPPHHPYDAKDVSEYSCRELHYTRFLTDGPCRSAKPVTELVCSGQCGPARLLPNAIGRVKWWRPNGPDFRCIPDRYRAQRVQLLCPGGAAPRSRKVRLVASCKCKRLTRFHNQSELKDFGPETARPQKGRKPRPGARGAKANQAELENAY

cynomolgus sclerostin [4] = molecular target: T1, cynomolgus sclerostin; test: SPR, pH 7.4 to 5.8, 37C
rat sclerostin [5] = molecular target: T2, rat sclerostin; test: SPR, pH 5.8, 37C
human sclerostin [6] = molecular target: T4, human sclerostin (human); test: SPR, pH 7.4 to 5.8, 37C
T4 chain: T1 chain with A16T, Q93P, A152E, P184T, G201S

human sclerostin [7] = molecular target: T4, human sclerostin; test: SPR, pH 7.4, 37C
mouse sclerostin [8] = molecular target: T3, mouse sclerostin; test: SPR, pH 7.4, 37C
human sclerostin [9] = molecular target: T4, human sclerostin; test: SPR, pH 5.8, 37C
cynomolgus sclerostin [10] = molecular target: T1, cynomolgus sclerostin; test: SPR, pH 5.8, 37C
rat sclerostin [11] = molecular target: T2, rat sclerostin; test: SPR, pH 7.4 to 5.8, 37C
cynomolgus sclerostin [12] = molecular target: T1, cynomolgus sclerostin; test: SPR, pH 7.4
cynomolgus sclerostin [13] = molecular target: T1, cynomolgus sclerostin; test: SPR, pH 7.4 to 5.8
human sclerostin [14] = molecular target: T4, human sclerostin; test: SPR, pH 7.4 to 5.8
human sclerostin [15] = molecular target: T4, human sclerostin; test: SPR, pH 7.4

B5: amH848/bsH656/abL152 (antibody)
chain 1: EVQLVQSGAEVKKPGASVKVSCKASGYTFTSYNMHWVRQAPGKGLEWMGEIMPHSGRYGLKQKFKGRVTMTRDTSISTAYMELSRLRSDDTAVYYCARLEYSEIYDDWYFDVWGQGTTVTVSS
chain 2: DIQMTQSPSSLSASVGDRVTITCRASEGIHDALAWYQQKPGKAPKLLIYWASTLESGVPSRFSGSGSGTDFTLTISSLQPEDFATYYCQQGDTLPYTFGGGTKVEIK
chain 3: QVQLVQSGAEVKKPGASVKVSCKVSGYTLTHTFMHWVRQAPGKGLEWMGWSDPEIGDTEYASKFQGRVTMTEDTSTDTAYMELSSLRSEDTAVYYCATGDTTYKFDYWGQGTLVTVSS
chain 4: B5 chain 2
koff (cynomolgus sclerostin [12]): 0.000606 s⁻¹
koff (cynomolgus sclerostin [13]): 0.374 s⁻¹
koff (human sclerostin [14]): 0.222 s⁻¹
koff (human sclerostin [15]): 0.000515 s⁻¹

B6: amH852/bsH638/abL152 (antibody)
chain 1: B5 chain 1 with S31D, R72T, I76T, S84R, R85S
chain 2: B5 chain 2
chain 3: B5 chain 3 with T58H
chain 4: B5 chain 2
koff (cynomolgus sclerostin [12]): 0.000387 s⁻¹
koff (cynomolgus sclerostin [13]): 0.0598 s⁻¹
koff (human sclerostin [14]): 0.028 s⁻¹
koff (human sclerostin [15]): 0.000418 s⁻¹

B7: amH852/abL152 (antibody, V domains shown)
VH: B5 chain 1 with S31D, R72T, I76T, S84R, R85S
VL: B5 chain 2
koff (cynomolgus sclerostin [12]): 0.0019 s⁻¹
koff (cynomolgus sclerostin [13]): 0.107 s⁻¹
koff (human sclerostin [14]): 0.0882 s⁻¹
koff (human sclerostin [15]): 0.00257 s⁻¹

B8: amH848/bsH638/abL152 (antibody)
chain 1: B5 chain 1
chain 2: B5 chain 2
chain 3: B5 chain 3 with T58H
chain 4: B5 chain 2
koff (cynomolgus sclerostin [12]): 0.000606 s⁻¹
koff (cynomolgus sclerostin [13]): 0.227 s⁻¹
koff (human sclerostin [14]): 0.1 s⁻¹
koff (human sclerostin [15]): 0.000596 s⁻¹

B9: mabA (antibody, V domains shown)
VH: EVQLVQSGAEVKKPGASVKVSCKASGYTFTDYNMHWVRQAPGQGLEWMGEINPNSGGAGYNQKFKGRVTMTTDTSTSTAYMELRSLRSDDTAVYYCARLGYDDIYDDWYFDVWGQGTTVTVSS
VL: B5 chain 2 with E27Q, G28D, H30S, D31N, A32Y, A34N, W50Y, A51T, T53R, E55L
Kd (cynomolgus sclerostin [1]): 75.3 pM
Kd (human sclerostin [9]): 1440 pM
Kd (rat sclerostin [2]): 0.0938 pM
Kd (cynomolgus sclerostin [10]): 1400 pM
Kd (rat sclerostin [5]): 0.00307 pM
Kd (human sclerostin [7]): 80 pM
Kd (mouse sclerostin [8]): 0.00302 pM

Second part, the binder after the results:

Kd (cynomolgus sclerostin [1]): 202 pM
Kd (rat sclerostin [2]): 25.2 pM
Kd (mouse sclerostin [3]): 5210 pM
koff (cynomolgus sclerostin [4]): 0.0156 s⁻¹
Kd (rat sclerostin [5]): 4200 pM
koff (human sclerostin [6]): 0.0131 s⁻¹
Kd (human sclerostin [7]): 213 pM
Kd (mouse sclerostin [8]): 63.2 pM
B1: mabA_pH1 (antibody, V domains shown)
VH: B9 VH with G57H, G100H
VL: B5 chain 2 with E27H, G28D, H30S, D31N, A32Y, A34N, W50Y, A51T, T53R, E55L

Kd (cynomolgus sclerostin [1]): 280 pM
Kd (human sclerostin [9]): 690 pM
Kd (rat sclerostin [2]): 6.61 pM
Kd (mouse sclerostin [3]): 0.0168 pM
Kd (cynomolgus sclerostin [10]): 627 pM
Kd (rat sclerostin [5]): 0.0736 pM
Kd (human sclerostin [7]): 323 pM
Kd (mouse sclerostin [8]): 5.57 pM
B2: mabA_NpH2 (antibody, V domains shown)
VH: B9 VH
VL: B5 chain 2 with E27Q, G28D, H30S, D31N, A32Y, A34N, W50H, A51T, T53R, E55L

Kd (cynomolgus sclerostin [1]): 189 pM
Kd (human sclerostin [9]): 435 pM
Kd (rat sclerostin [2]): 82.6 pM
Kd (mouse sclerostin [3]): 503 pM
Kd (cynomolgus sclerostin [10]): 459 pM
Kd (rat sclerostin [5]): 292 pM
Kd (human sclerostin [7]): 193 pM
Kd (mouse sclerostin [8]): 204 pM
B3: mabA_NpH1 (antibody, V domains shown)
VH: B9 VH with D111H
VL: B5 chain 2 with E27Q, G28D, H30S, D31N, A32Y, A34N, W50H, A51T, T53R, E55L

Kd (rat sclerostin [2]): 184 pM
Kd (mouse sclerostin [3]): 1050 pM
Kd (mouse sclerostin [8]): 287 pM
koff (rat sclerostin [11]): 0.0182 s⁻¹
B4: mabA_pH3 (antibody, V domains shown)
VH: B9 VH with N54H, G57H, G100H, Y105H
VL: B5 chain 2 with E27H, G28D, H30S, D31N, A32Y, A34N, W50Y, A51T, T53R, E55L

Kd (cynomolgus sclerostin [1]): 252 pM
Kd (rat sclerostin [2]): 31.2 pM
Kd (mouse sclerostin [3]): 5430 pM
koff (cynomolgus sclerostin [4]): 0.0165 s⁻¹
Kd (rat sclerostin [5]): 4450 pM
koff (human sclerostin [6]): 0.0139 s⁻¹
Kd (human sclerostin [7]): 258 pM
Kd (mouse sclerostin [8]): 80.7 pM
B10: mabA_pH2 (antibody, V domains shown)
VH: B9 VH with G57H, G100H, D103H
VL: B5 chain 2 with E27H, G28D, H30S, D31N, A32Y, A34N, W50Y, A51T, T53R, E55L
